Laboratory results taken from IntAct's records for PubMed 23085078.

B1: mRNA-decapping enzyme 1A (Homo sapiens), Q9NPI6 (parent)
chain: MEALSRAGQEMSLAALKQHDPYITSIADLTGQVALYTFCPKANQWEKTDIEGTLFVYRRSASPYHGFTIVNRLNMHNLVEPVNKDLEFQLHEPFLLYRNASLSIYSIWFYDKNDCHRIAKLMADVVEEETRRSQQAARDKQSPSQANGCSDHRPIDILEMLSRAKDEYERNQMGDSNISSPGLQPSTQLSNLGSTETLEEMPSGSQDKSAPSGHKHLTVEELFGTSLPKEQPAVVGLDSEEMERLPGDASQKEPNSFLPFPFEQLGGAPQSETLGVPSAAHHSVQPEITTPVLITPASITQSNEKHAPTYTIPLSPVLSPTLPAEAPTAQVPPSLPRNSTMMQAVKTTPRQRSPLLNQPVPELSHASLIANQSPFRAPLNVTNTAGTSLPSVDLLQKLRLTPQHDQIQTQPLGKGAMVASFSPAAGQLATPESFIEPPSKTAAARVAASASLSNMVLAPLQSMQQNQDPEVFVQPKVLSSAIPVAGAPLVTATTTAVSSVLLAPSVFQQTVTRSSDLERKASSPSPLTIGTPESQRKPSIILSKSQLQDTLIHLIKNDSSFLSTLHEVYLQVLTKNKDNHNL
B2: Proline-rich nuclear receptor coactivator 2 (Homo sapiens), Q9NPJ4-1 (parent)
chain: MGGGERYNIPAPQSRNVSKNQQQLNRQKTKEQNSQMKIVHKKKERGHGYNSSAAAWQAMQNGGKNKNFPNNQSWNSSLSGPRLLFKSQANQNYAGAKFSEPPSPSVLPKPPSHWVPVSFNPSDKEIMTFQLKTLLKVQV
partner: B1 chain

Variants of: B1
Settings: with PNRC2, Q9NPJ4-1

Row | Variant | effect of a mutation on the interaction
1 | R98A | decreasing interaction strength
2 | W45A | decreasing interaction strength
3 | L96A | disrupting interaction strength
4 | F94A | decreasing interaction strength
5 | Y36A | decreasing interaction strength

Variants of: B2
Settings: with dcp1a_human DCP1A

Row | Variant | effect of a mutation on the interaction
6 | P108A | decreasing interaction strength
7 | K109A | disrupting interaction strength
8 | W114A | disrupting interaction strength
